Test results from US20230192819A1 (TWIST BIOSCIENCE, published 2023).
Where “and” joins values, the source holds several entries; their conditions need not be identical. Identical values can stand only once. Like-named read-outs stand apart in the source and are kept apart here.

Columns and labels:
[1] = biological target: T1, Acro S1 spike protein (SARS-CoV-2) (SARS-CoV-2, UniProt P0DTC2 16-685); assay: SPR (Carterra LSA); […]; 1:1 model; […]
[2] = biological target: California Variant W152C_L452R_D614G
[3] = biological target: T2, S1 variant B.1.1.7: UK (Acro) spike protein (SARS-CoV-2, UniProt P0DTC2 16-1213); assay: SPR (Carterra LSA); […]; 1:1 model; […]
[4] = biological target: T2, S1 variant B.1.1.7: UK (Acro) spike …
[5] = biological target: T3, C52Hg Brazilian variant (Acro) spike protein (SARS-CoV-2, UniProt P0DTC2 16-1213); assay: SPR (Carterra LSA); […]; 1:1 model; […]
[6] = biological target: T1, Acro S1 spike protein (SARS-CoV-2); assay: SPR (Carterra LSA); antibody on chip, spike protein as analyte; summary table
[7] = biological target: T2, S1 variant B.1.1.7: UK (Acro) spike …; assay: as above
[8] = biological target: T3, C52Hg Brazilian variant (Acro) spike …; assay: as above
[9] = biological target: T4, C52Hk S. African variant (Acro) spike protein (SARS-CoV-2, UniProt P0DTC2 16-1213); assay: as above
[10] = biological target: T3, C52Hg Brazilian variant (Acro) spike …
[11] = biological target: T1, Acro S1 spike protein (SARS-CoV-2)
[12] = biological target: T4, C52Hk S. African variant (Acro) spike …; assay: SPR (Carterra LSA); […]; 1:1 model; […]
[13] = biological target: T4, C52Hk S. African variant (Acro) spike …
[14] = biological target: Delta variant (Acro) spike protein (SARS-CoV-2, UniProt P0DTC2 16-1213)

B1: Antibody 1-15 (Fc fusion)
chain: EVQLVESGGGLVQPGGSLRLSCAASGGIFSDMFMGWFRQAPGKEREFVATIDWSGDTAFYADSVKGRFTISADNSKNTAYLQMNSLKPEDTAVYYCAVDLSGDAVYDWGQGTLVTVSS
[1]
  Kd: 10.4 nM
  koff: 0.00094 s⁻¹
  kon: 90000 M⁻¹ s⁻¹
[2]
  IC50: 66.7 nM
[3]
  Kd: 0.828 nM
  koff: 0.00024 s⁻¹
  kon: 290000 M⁻¹ s⁻¹
[4]
  Kd: 0.708 nM and 0.82 nM
  koff: 5.5e-05 s⁻¹
  kon: 77700 M⁻¹ s⁻¹
[5]
  Kd: 1.04 nM
  koff: 0.00028 s⁻¹
  kon: 270000 M⁻¹ s⁻¹
[6]
  Kd: 10.4 nM
[7]
  Kd: 0.828 nM
[8]
  Kd: 1.04 nM
[9]
  Kd: 1.4 nM
[10]
  koff: 1e-05 s⁻¹
[11]
  Kd: 5.43 nM and 10.9 nM
  koff: 0.000339 s⁻¹ and 0.000547 s⁻¹
  kon: 62400 M⁻¹ s⁻¹ and 50200 M⁻¹ s⁻¹
[12]
  Kd: 1.04 nM
  koff: 0.00028 s⁻¹
  kon: 270000 M⁻¹ s⁻¹

B2: Antibody 1-1 (Fc fusion)
chain: EVQLVESGGGLVQPGGSLRLSCAASGSIGSINAMGWFRQAPGKEREWVAGISNGGTTNYADSVKGRFTISADNSKNTAYLQMNSLKPEDTAVYYCAADGVPEYSDYASGPVWGQGTLVTVSS
[1]
  Kd: 0.677 nM
  koff: 0.00042 s⁻¹
  kon: 620000 M⁻¹ s⁻¹
[2]
  IC50: 4.4 nM
[13]
  Kd: 6.2 nM
  koff: 0.000806 s⁻¹
  kon: 130000 M⁻¹ s⁻¹
[3]
  Kd: 0.867 nM
  koff: 0.00052 s⁻¹
  kon: 600000 M⁻¹ s⁻¹
[4]
  Kd: 0.82 nM and 2.06 nM
  koff: 0.00024 s⁻¹ and 0.000189 s⁻¹
[5]
  Kd: 0.691 nM
  koff: 0.00038 s⁻¹
  kon: 550000 M⁻¹ s⁻¹
[6]
  Kd: 0.677 nM
[7]
  Kd: 0.867 nM
[8]
  Kd: 0.691 nM
[9]
  Kd: 1.07 nM
[14]
  Kd: 2.31 nM and 2.22 nM
  koff: 0.000433 s⁻¹ and 0.000358 s⁻¹
  kon: 188000 M⁻¹ s⁻¹ and 161000 M⁻¹ s⁻¹
[10]
  Kd: 5.57 nM and 9.51 nM
  koff: 0.000724 s⁻¹ and 0.000956 s⁻¹
  kon: 130000 M⁻¹ s⁻¹ and 100000 M⁻¹ s⁻¹
[11]
  Kd: 2.8 nM and 4 nM
  koff: 0.000378 s⁻¹ and 0.000446 s⁻¹
  kon: 135000 M⁻¹ s⁻¹ and 112000 M⁻¹ s⁻¹
[12]
  Kd: 1.07 nM
  koff: 0.00058 s⁻¹
  kon: 540000 M⁻¹ s⁻¹

B3: Antibody 1-7 (Fc fusion)
chain: EVQLVESGGGLVQPGGSLRLSCAASGGTFSSIGMGWFRQAPGKEREFVAAISWDGGATAYADSVKGRFTISADNSKNTVYLQMNSLKPEDTAVYYCAKEDVGKPFDWGQGTLVTVSS
[1]
  Kd: 1.31 nM
  koff: 0.00047 s⁻¹
  kon: 360000 M⁻¹ s⁻¹
[2]
  IC50: 0.111 nM
[13]
  Kd: 8.2 nM and 7.9 nM
  koff: 0.000459 s⁻¹ and 0.000521 s⁻¹
  kon: 56000 M⁻¹ s⁻¹ and 66000 M⁻¹ s⁻¹
[3]
  Kd: 1.11 nM
  koff: 0.0004 s⁻¹
  kon: 360000 M⁻¹ s⁻¹
[4]
  kon: 144000 M⁻¹ s⁻¹ and 188000 M⁻¹ s⁻¹
[5]
  Kd: 0.962 nM
  koff: 0.00025 s⁻¹
  kon: 260000 M⁻¹ s⁻¹
[6]
  Kd: 1.31 nM
[7]
  Kd: 1.11 nM
[8]
  Kd: 0.962 nM
[9]
  Kd: 1.36 nM
[14]
  Kd: 0.114 nM and 0.0579 nM
  koff: 1.87e-05 s⁻¹ and 1e-05 s⁻¹
  kon: 164000 M⁻¹ s⁻¹ and 173000 M⁻¹ s⁻¹
[10]
  Kd: 8.53 nM and 12.5 nM
  koff: 0.00081 s⁻¹ and 0.00121 s⁻¹
  kon: 95000 M⁻¹ s⁻¹ and 96200 M⁻¹ s⁻¹
[11]
  kon: 130000 M⁻¹ s⁻¹ and 161000 M⁻¹ s⁻¹
[12]
  Kd: 1.36 nM
  koff: 0.00049 s⁻¹
  kon: 360000 M⁻¹ s⁻¹

B4: Antibody 1-10 (Fc fusion)
chain: EVQLVESGGGLVQPGSSLRLSCAASGGTFSSIGMGWFRQAPGKEREFVAAISWDGGATAYADSVKGRFTISADNSKNTAYLQMNSLKPEDTAVYYCAKEDVGKPFDWGQGTLVTVSS
[1]
  Kd: 1.96 nM
  koff: 0.00053 s⁻¹
  kon: 270000 M⁻¹ s⁻¹
[2]
  IC50: 0.13 nM
[3]
  Kd: 0.481 nM
  koff: 0.00013 s⁻¹
  kon: 270000 M⁻¹ s⁻¹
[4]
  Kd: 0.33 nM and 0.27 nM
  koff: 2.54e-05 s⁻¹ and 2.32e-05 s⁻¹
  kon: 77000 M⁻¹ s⁻¹ and 86000 M⁻¹ s⁻¹
[5]
  Kd: 127 nM
  koff: 0.00081 s⁻¹
  kon: 6400 M⁻¹ s⁻¹
[6]
  Kd: 1.95 nM
[7]
  Kd: 0.481 nM
[8]
  Kd: 127 nM
[9]
  Kd: 13.9 nM
[14]
  Kd: 7.43 nM and 5.43 nM
  koff: 0.000706 s⁻¹ and 0.000516 s⁻¹
  kon: 95000 M⁻¹ s⁻¹
[11]
  Kd: 2.6 nM
  koff: 0.00053 s⁻¹ and 0.000728 s⁻¹
  kon: 280000 M⁻¹ s⁻¹
[12]
  Kd: 13.9 nM
  koff: 0.00089 s⁻¹
  kon: 64000 M⁻¹ s⁻¹
